The target of experiment [1] is T1, cynomolgus FcRH5 on stably transfected SVT2 cells (cynomologous monkey).
T1 construct: also called cyno FcRH5; cynoFcRH5
T1 chain: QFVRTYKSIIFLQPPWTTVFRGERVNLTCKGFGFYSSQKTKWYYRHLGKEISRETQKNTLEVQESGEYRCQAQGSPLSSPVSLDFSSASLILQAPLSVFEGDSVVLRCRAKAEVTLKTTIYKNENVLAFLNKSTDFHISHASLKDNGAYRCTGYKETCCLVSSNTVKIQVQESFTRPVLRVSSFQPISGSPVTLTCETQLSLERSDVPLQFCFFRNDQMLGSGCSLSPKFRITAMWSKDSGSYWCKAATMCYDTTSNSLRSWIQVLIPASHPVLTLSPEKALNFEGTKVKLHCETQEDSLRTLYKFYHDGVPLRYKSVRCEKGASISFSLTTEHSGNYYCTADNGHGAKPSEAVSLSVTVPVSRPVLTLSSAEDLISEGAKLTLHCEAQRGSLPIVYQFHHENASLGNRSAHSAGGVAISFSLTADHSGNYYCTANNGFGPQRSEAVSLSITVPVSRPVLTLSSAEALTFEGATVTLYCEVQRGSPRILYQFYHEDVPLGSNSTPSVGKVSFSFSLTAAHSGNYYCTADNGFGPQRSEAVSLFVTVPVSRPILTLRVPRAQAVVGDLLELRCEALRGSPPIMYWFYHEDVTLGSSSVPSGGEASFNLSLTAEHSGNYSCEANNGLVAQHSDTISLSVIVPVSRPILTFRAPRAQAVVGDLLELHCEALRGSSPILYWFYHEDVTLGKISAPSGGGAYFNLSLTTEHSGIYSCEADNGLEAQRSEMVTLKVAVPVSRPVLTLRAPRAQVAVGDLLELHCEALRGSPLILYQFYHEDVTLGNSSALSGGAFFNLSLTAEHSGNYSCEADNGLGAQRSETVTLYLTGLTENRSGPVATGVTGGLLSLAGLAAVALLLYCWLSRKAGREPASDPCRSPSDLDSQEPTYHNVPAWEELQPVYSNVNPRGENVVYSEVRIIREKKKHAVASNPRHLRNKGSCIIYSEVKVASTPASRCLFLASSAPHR
Put plainly: Scatchard analysis: 0.5 nM 125I-labeled antibody competed with the unlabeled antibody (50 to 0.02 nM) on SVT2.cyFcRH5 cells, 4 h at 4 C; St. Error 0.091. As to the method:
To further determine binding of the FcRH5 murine antibodies and IgG clones, binding of iodinated IgG variants to OPM2 cells expressing human FcRH5 and SVT2 cells expressing cynomologous FcRH5, Scatchard analysis was performed (Table 9A).
For Scatchard analysis, 0.5 nM I¹²⁵ labeled murine or IgG clone anti-FcRH5 was competed against unlabeled murine or IgG clone anti-FcRH5, respectively, ranging from 50 to 0.02 nM (12 step 1:2 serial dilution) in the presence of a transfected OPM2 line stably expressing human-FcRH5 and a transfected SVT2 line stably expressing cynomologous-FcRH5. After a four hour incubation at 4° C., cells were washed and cell pellet counts were read by a gamma counter (1470 WIZARD Automatic Gamma Counter; Perkin Elmer, Walthem, Mass.). All points were done in triplicate and counted for 10 minutes. The average CPM was used for Kd calculation using the New Ligand (Genentech, South San Francisco, Calif.) program.

The target in experiment [2] is T2, gD tagged human FcRH4 on SVT2 cells (human, UniProt Q96PJ5 20-515).
T2 construct: whole, on cells; also called huFcRH4; IRTA1; not shown: gD tag; the construct for this FcRH is not described
T2 sequence (looked up): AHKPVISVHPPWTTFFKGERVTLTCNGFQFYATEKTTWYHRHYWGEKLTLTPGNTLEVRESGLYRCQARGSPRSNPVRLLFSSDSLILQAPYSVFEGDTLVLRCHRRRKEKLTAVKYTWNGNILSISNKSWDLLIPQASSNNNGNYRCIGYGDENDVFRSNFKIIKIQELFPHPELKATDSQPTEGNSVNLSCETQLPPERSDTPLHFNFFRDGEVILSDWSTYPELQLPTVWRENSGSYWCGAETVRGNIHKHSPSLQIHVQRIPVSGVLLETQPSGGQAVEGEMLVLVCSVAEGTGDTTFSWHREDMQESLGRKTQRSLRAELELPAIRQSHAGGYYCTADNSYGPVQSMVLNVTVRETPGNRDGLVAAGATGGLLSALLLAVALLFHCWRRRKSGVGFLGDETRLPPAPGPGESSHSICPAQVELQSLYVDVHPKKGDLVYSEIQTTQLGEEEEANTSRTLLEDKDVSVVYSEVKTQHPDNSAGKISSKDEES
As to the kind of experiment: FACS, SVT2.MSCV.gD.FcRH4 cells, PE mu anti-human IgG. For orientation: Flow cytometry measures light scatter and fluorescence of single cells or particles in a stream.

The target of experiment [3] is T3, gD tagged human FcRH3 on SVT2 cells (human, UniProt Q96P31 18-734).
T3 construct: whole, on cells; also called huFcRH3; not shown: gD tag; the construct for this FcRH is not described
T3 sequence (looked up): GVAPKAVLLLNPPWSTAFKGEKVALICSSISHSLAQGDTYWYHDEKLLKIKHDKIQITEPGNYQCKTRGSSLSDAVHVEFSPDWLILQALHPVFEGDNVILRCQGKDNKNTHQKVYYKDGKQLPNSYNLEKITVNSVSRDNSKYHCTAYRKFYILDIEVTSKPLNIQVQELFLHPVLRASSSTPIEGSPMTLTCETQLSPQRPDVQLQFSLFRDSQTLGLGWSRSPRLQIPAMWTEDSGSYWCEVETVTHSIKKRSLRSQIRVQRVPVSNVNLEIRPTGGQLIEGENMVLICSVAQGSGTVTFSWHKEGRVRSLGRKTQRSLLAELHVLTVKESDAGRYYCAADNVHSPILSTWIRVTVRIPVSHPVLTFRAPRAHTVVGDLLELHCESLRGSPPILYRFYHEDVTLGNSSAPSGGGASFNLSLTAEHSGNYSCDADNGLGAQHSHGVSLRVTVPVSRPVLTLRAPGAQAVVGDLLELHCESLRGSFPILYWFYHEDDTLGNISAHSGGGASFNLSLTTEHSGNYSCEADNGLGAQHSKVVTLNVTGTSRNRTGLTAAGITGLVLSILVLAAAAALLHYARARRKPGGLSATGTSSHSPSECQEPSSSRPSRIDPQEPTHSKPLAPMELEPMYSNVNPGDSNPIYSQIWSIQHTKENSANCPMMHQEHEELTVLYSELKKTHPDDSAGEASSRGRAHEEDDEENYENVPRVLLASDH
As to the kind of experiment: FACS, SVT2.MSCV.gD.FcRH3 cells, PE mu anti-human IgG.

Experiment [4] deals with T4, gD tagged human FcRH2 on SVT2 cells (human, UniProt Q96LA5 20-508).
T4 construct: whole, on cells; also called huFcRH2; not shown: gD tag; the construct for this FcRH is not described
T4 sequence (looked up): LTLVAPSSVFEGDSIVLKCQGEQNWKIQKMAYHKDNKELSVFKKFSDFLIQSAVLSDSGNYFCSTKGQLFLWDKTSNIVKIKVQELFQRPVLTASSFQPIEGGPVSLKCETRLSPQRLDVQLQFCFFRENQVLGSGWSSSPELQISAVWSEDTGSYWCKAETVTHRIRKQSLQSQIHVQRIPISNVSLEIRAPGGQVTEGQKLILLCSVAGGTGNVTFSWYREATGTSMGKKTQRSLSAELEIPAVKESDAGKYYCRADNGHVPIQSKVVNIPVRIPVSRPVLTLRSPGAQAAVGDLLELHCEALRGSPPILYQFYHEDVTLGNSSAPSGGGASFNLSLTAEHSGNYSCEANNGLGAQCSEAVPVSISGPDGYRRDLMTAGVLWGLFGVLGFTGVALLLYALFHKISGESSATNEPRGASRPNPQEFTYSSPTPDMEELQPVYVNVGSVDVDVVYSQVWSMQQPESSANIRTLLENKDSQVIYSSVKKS
Put plainly: FACS, SVT2.MSCV.gD.FcRH2 cells, PE mu anti-human IgG.

The target in experiment [5] is T5, gD tagged human FcRH1 on SVT2 cells (human, UniProt Q96LA6 17-429).
T5 construct: whole, on cells; also called huFcRH1; not shown: gD tag
T5 sequence (looked up): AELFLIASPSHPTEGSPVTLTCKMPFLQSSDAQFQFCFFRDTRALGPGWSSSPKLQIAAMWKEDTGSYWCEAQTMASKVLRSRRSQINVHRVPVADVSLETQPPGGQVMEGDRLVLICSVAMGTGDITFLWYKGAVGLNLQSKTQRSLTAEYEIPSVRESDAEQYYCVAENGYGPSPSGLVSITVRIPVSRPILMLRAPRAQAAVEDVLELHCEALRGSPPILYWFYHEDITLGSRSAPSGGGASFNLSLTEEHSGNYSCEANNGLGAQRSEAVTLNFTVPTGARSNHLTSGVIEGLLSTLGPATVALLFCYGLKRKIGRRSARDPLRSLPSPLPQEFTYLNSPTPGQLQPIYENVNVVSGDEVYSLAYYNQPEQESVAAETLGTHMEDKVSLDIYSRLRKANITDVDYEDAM
As to the kind of experiment: FACS, SVT2.MSCV.gD.FcRH1 cells, PE mu anti-human IgG.

Experiment [6] deals with T6, gD tagged human FcRH6 on SVT2 cells (human, UniProt Q6DN72 20-434).
T6 construct: whole, on cells; also called huFcRH6; not shown: gD tag; the construct for this FcRH is not described
T6 sequence (looked up): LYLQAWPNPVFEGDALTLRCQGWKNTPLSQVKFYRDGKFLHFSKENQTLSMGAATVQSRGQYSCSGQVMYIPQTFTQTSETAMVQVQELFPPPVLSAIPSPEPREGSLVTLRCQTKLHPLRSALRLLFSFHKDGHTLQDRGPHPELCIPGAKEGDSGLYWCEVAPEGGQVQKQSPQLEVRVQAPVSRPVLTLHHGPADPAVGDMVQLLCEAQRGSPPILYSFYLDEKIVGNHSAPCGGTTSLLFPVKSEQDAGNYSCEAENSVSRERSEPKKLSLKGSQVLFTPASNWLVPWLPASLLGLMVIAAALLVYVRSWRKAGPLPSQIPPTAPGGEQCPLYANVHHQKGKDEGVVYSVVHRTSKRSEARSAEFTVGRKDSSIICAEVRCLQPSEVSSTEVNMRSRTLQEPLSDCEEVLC
As to the kind of experiment: FACS, SVT2.MSCV.gD.FcRH6 cells, PE mu anti-human IgG.

B1: chimeric anti-human FcRH5 antibody 13G9 (antibody, human IgG1, kappa)
heavy: not shown
light: DIVMTQSQKIMSTSVGDRVNVTCKASQNVGSNVAWYHQKPGQSPKALIYSASYRYSGVPDRFTGSGSGTDFTLTISNVQSEDLAEYFCQQYKTWTFGGGTKLEIKRTVAAPSVFIFPPSDEQLKSGTASVVCLLNNFYPREAKVQWKVDNALQSGNSQESVTEQDSKDSTYSLSSTLTLSKADYEKHKVYACEVTHQGLSSPVTKSFNRGEC
notes: Expressed in 293 cells; also called ch13G9; chMAFcRH5 (13G9)
For the molecule B1, the dissociation constant (Kd) (as a rule, a measure of binding affinity in units of concentration) in experiment [1] came to 1.08 nM.

B2: chimeric anti-human FcRH5 antibody 7D11 (antibody, human IgG1, kappa)
heavy: not shown
light: DILLTQSPAILSVSPGERVSFSCRSSQSIGTNIHWYQQRTNGSPRLLIKFASESLSGIPSRFSGSGSGTDFTLSINSVESEDFADYYCQQSNSWPLTFGAGTKVEIKRTVAAPSVFIFPPSDEQLKSGTASVVCLLNNFYPREAKVQWKVDNALQSGNSQESVTEQDSKDSTYSLSSTLTLSKADYEKHKVYACEVTHQGLSSPVTKSFNRGEC
notes: Mouse/human chimeric IgG1 kappa expressed in 293 cells; also called ch7D11; Ch anti-FcRH5 (7D11)
For the molecule B2, the binding result in experiment [2], in experiment [3], in experiment [4], in experiment [5] and in experiment [6] was “no binding (tested: 1.0 ug per about 10^6 cells (p-1120))” each time.

For the origin of these results see patent publication US20130089497A1 (Genentech, published 2013).
